Like-named read-outs stand apart in the source and are kept apart here.
T1: PHF14 (human, UniProt O94880 1-948)
T1 sequence: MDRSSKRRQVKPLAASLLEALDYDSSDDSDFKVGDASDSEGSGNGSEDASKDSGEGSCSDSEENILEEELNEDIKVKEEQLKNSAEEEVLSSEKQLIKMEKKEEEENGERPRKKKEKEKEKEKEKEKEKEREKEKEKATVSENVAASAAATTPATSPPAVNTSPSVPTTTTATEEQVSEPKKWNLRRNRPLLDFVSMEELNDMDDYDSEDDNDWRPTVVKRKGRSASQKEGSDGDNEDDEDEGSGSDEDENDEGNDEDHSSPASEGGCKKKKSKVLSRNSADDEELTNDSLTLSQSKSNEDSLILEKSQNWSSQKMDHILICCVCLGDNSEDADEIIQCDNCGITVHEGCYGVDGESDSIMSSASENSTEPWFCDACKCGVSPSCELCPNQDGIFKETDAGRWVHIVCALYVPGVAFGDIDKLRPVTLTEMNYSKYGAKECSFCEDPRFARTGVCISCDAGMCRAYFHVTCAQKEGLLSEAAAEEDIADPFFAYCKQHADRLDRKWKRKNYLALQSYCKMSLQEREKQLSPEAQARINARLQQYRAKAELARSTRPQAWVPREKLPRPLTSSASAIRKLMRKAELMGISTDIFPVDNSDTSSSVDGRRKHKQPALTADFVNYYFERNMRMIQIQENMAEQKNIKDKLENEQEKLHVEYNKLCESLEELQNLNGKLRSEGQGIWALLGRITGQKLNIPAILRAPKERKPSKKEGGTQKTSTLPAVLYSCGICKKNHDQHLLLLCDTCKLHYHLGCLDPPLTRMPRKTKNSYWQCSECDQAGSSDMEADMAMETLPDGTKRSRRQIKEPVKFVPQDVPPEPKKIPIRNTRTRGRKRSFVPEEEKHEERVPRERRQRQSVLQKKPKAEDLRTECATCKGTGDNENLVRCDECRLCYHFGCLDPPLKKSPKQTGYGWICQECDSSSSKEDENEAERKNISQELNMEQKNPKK

T2: HMG20A, human, recombinant from insect cells (human, UniProt Q9NP66 1-347)
T2 sequence: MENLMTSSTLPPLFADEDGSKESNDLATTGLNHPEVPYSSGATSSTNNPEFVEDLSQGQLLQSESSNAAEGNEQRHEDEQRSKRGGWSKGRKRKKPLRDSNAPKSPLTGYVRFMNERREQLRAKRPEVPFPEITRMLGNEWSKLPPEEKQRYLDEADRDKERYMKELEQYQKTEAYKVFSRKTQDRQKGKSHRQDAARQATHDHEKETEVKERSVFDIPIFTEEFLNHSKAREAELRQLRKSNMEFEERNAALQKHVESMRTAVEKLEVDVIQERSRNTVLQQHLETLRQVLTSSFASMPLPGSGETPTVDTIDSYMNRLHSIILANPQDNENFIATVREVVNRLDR


Tests used:
PHF14;HMG20A;TCF20 = PHF14;HMG20A;TCF20 (human;human;human, UniProt O94880;Q9NP66;Q9UGU0 1-948;1-347;1-1960, ||); test: EMSA
HMG20A [1] = target: T3, HMG20A (human, UniProt Q9NP66 1-347); test: EMSA
PHF14;HMG20A = PHF14;HMG20A (human;human, UniProt O94880;Q9NP66 1-948;1-347, |); test: EMSA
HMG20A [2] = target: T3, HMG20A; test: EMSA; remark: listed apart in the source
PHF14 = target: T1, PHF14; test: EMSA
[3] = target: T2, HMG20A, human, recombinant from insect …; test: native gel or EMSA
[4] = target: PHF14 (PHD finger protein 14), human, recombinant from insect cells (human) (UniProt O94880); test: native gel or EMSA

Binder	binding result (PHF14;HMG20A;TCF20)	binding result (HMG20A [1])	binding result (PHF14;HMG20A)	binding result (HMG20A [2])	binding result (PHF14)	stoichiometry N [3]	stoichiometry N [4]
dsDNA (dsDNA) DNA 1: CCCTATAACCCCTGCATTGAATTCCAGTCTGATAA DNA 2: TTTATCAGACTGGAATTCAATGCAGGGGTTATAGGG	binds	binds	binds				
4WJ (four-way junction, Holliday junction) (structured_DNA) DNA 1: CCCTATAACCCCTGCATTGAATTCCAGTCTGATAA DNA 2: GTAGTCGTGATAGGTGCAGGGGTTATAGGG DNA 3: AACAGTAGCTCTTATTCGAGCTCGCGCCCTATCACGACTA DNA 4: TTTATCAGACTGGAATTCAAGCGCGAGCTCGAATAAGAGCTACTGT	binds		binds	binds	no binding		
TCF20 (transcription factor 20), human, recombinant from insect cells (natural protein) MQSFREQSSYHGNQQSYPQEVHGSSRLEEFSPRQAQMFQNFGGTGGSSGSSGSGSGGGRRGAAAAAAAMASETSGHQGYQGFRKEAGDFYYMAGNKDPVTTGTPQPPQRRPSGPVQSYGPPQGSSFGNQYGSEGHVGQFQAQHSGLGGVSHYQQDYTGPFSPGSAQYQQQASSQQQQQQVQQLRQQLYQSHQPLPQATGQPASSSSHLQPMQRPSTLPSSAAGYQLRVGQFGQHYQSSASSSSSSSFPSPQRFSQSGQSYDGSYNVNAGSQYEGHNVGSNAQAYGTQSNYSYQPQSMKNFEQAKIPQGTQQGQQQQQPQQQQHPSQHVMQYTNAATKLPLQSQVGQYNQPEVPVRSPMQFHQNFSPISNPSPAASVVQSPSCSSTPSPLMQTGENLQCGQGSVPMGSRNRILQLMPQLSPTPSMMPSPNSHAAGFKGFGLEGVPEKRLTDPGLSSLSALSTQVANLPNTVQHMLLSDALTPQKKTSKRPSSSKKADSCTNSEGSSQPEEQLKSPMAESLDGGCSSSSEDQGERVRQLSGQSTSSDTTYKGGASEKAGSSPAQGAQNEPPRLNASPAAREEATSPGAKDMPLSSDGNPKVNEKTVGVIVSREAMTGRVEKPGGQDKGSQEDDPAATQRPPSNGGAKETSHASLPQPEPPGGGGSKGNKNGDNNSNHNGEGNGQSGHSAAGPGFTSRTEPSKSPGSLRYSYKDSFGSAVPRNVSGFPQYPTGQEKGDFTGHGERKGRNEKFPSLLQEVLQGYHHHPDRRYSRSTQEHQGMAGSLEGTTRPNVLVSQTNELASRGLLNKSIGSLLENPHWGPWERKSSSTAPEMKQINLTDYPIPRKFEIEPQSSAHEPGGSLSERRSVICDISPLRQIVRDPGAHSLGHMSADTRIGRNDRLNPTLSQSVILPGGLVSMETKLKSQSGQIKEEDFEQSKSQASFNNKKSGDHCHPPSIKHESYRGNASPGAATHDSLSDYGPQDSRPTPMRRVPGRVGGREGMRGRSPSQYHDFAEKLKMSPGRSRGPGGDPHHMNPHMTFSERANRSSLHTPFSPNSETLASAYHANTRAHAYGDPNAGLNSQLHYKRQMYQQQPEEYKDWSSGSAQGVIAAAQHRQEGPRKSPRQQQFLDRVRSPLKNDKDGMMYGPPVGTYHDPSAQEAGRCLMSSDGLPNKGMELKHGSQKLQESCWDLSRQTSPAKSSGPPGMSSQKRYGPPHETDGHGLAEATQSSKPGSVMLRLPGQEDHSSQNPLIMRRRVRSFISPIPSKRQSQDVKNSSTEDKGRLLHSSKEGADKAFNSYAHLSHSQDIKSIPKRDSSKDLPSPDSRNCPAVTLTSPAKTKILPPRKGRGLKLEAIVQKITSPNIRRSASSNSAEAGGDTVTLDDILSLKSGPPEGGSVAVQDADIEKRKGEVASDLVSPANQELHVEKPLPRSSEEWRGSVDDKVKTETHAETVTAGKEPPGAMTSTTSQKPGSNQGRPDGSLGGTAPLIFPDSKNVPPVGILAPEANPKAEEKENDTVTISPKQEGFPPKGYFPSGKKKGRPIGSVNKQKKQQQPPPPPPQPPQIPEGSADGEPKPKKQRQRRERRKPGAQPRKRKTKQAVPIVEPQEPEIKLKYATQPLDKTDAKNKSFYPYIHVVNKCELGAVCTIINAEEEEQTKLVRGRKGQRSLTPPPSSTESKALPASSFMLQGPVVTESSVMGHLVCCLCGKWASYRNMGDLFGPFYPQDYAATLPKNPPPKRATEMQSKVKVRHKSASNGSKTDTEEEEEQQQQQKEQRSLAAHPRFKRRHRSEDCGGGPRSLSRGLPCKKAATEGSSEKTVLDSKPSVPTTSEGGPELELQIPELPLDSNEFWVHEGCILWANGIYLVCGRLYGLQEALEIAREMKCSHCQEAGATLGCYNKGCSFRYHYPCAIDADCLLHEENFSVRCPKHKPPLPCPLPPLQNKTAKGSLSTEQSERG						0.5	0.5
